Numbering of substitutions follows the chain as printed. Values belong to the binder of their own block, whether it stands above or below them.
Tests used:
[1] = molecular target: T1, human serum amyloid P component (SAP), purified (Homo sapiens, UniProt P02743 20-223); assay: direct ELISA, human SAP coated at 1 µg/mL, detection with HRP rabbit anti-mouse IgG
T1 construct: Immobilised directly, amine-coupled, captured on O-phosphoethanolamine or by sheep polyclonal antibody, depending on the assay; also called human SAP; native human SAP
Protocol: (§1) 1 μg/mL or 5 μg/mL human SAP was directly immobilised onto an ELISA plate and blocked with 1% BSA/TBS plus 0.05% TWEEN20. Anti-SAP antibodies from purified material were titrated across the plate. Bound antibody was detected by treatment with a horse-radish peroxidase (HRP)-conjugated rabbit-anti-mouse IgG antibody (Dako, P0260). The ELISA was developed using O-phenylenediamine dihydrochloride (OPD) peroxidase substrate (Sigma, P9187).

[2] = molecular target: T1, human serum amyloid P component (SAP), …; assay: Biacore (BIAcoreX), human SAP covalently immobilised on the chip; mean and SD of 3 replicates
[3] = molecular target: T1, human serum amyloid P component (SAP), …; assay: Biacore, human SAP captured on immobilised O-phosphoethanolamine (CM5 chip, calcium), bivalent analyte model
Protocol: (§2) O-phosphoethanolamine was immobilised on a Biacore CM5 chip by primary amine coupling in accordance with the manufacturer's instructions. Human SAP was then captured on the surface in the presence of calcium chloride, in order to replicate in the Biacore system in vitro, the precise orientation of SAP molecules bound to amyloid fibrils in vivo. Anti SAP antibodies were then passed over this surface at 256, 64, 16, 4, 1 nM and a binding sensorgrams obtained. Analysis was carried out at 25° C. using 4% BSA, 10 mM Tris, 140 mM NaCl, 2 mM CaCl₂, 0.05% surfactant P20, 0.02% Na N₃, pH 8.0 as running buffer. […] Data generated were double referenced with a buffer injection over the human SAP surface and analyzed using the bivalent analyte model in the Biacore T100 evaluation software.

[4] = molecular target: T1, human serum amyloid P component (SAP), …; assay: direct ELISA, human SAP coated at 5 µg/mL, detection with HRP rabbit anti-mouse IgG
Protocol: as §1

[5] = molecular target: T1, human serum amyloid P component (SAP), …; assay: direct ELISA, human SAP coated at 1 µg/mL, detection with goat anti-human kappa light chain peroxidase conjugate
Protocol: as §1, with “1” for “1 μg/mL or 5”, “from the test supernatants or” for “from”, “goat anti-human Kappa Light Chains” for “a horse-radish”, “conjugate (Sigma, A7164).” for “(HRP)-conjugated rabbit-anti-mouse IgG antibody (Dako, P0260).”

[6] = molecular target: T1, human serum amyloid P component (SAP), …; assay: Biacore, human SAP amine-coupled on C1 chip, culture supernatant, 1 to 1 dissociation model, single curve
Protocol: Human and cynomologus monkey SAP were immobilised on a Biacore C1 chip by primary amine coupling in accordance with the manufacturer's instructions. […] All runs were double referenced with a buffer injection for purified sample or media for the supernatant samples over the human and cyno SAP surfaces. Analysis was carried out at 25° C. using HBS-EP buffer. […] Data were analysed using the 1 to 1 dissociation model within the Biacore T100 evaluation software.
The values were based on a single curve and used for ranking purposes between the different constructs for binding to human SAP.

[7] = molecular target: T1, human serum amyloid P component (SAP), …; assay: ELISA, 1 ug/mL human SAP directly immobilised
Protocol: as §1, with “1” for “1 μg/mL or 5”, “from the test supernatants or” for “from”, “goat anti-human Kappa Light Chains” for “a horse-radish”, “conjugate (Sigma, A7164).” for “(HRP)-conjugated rabbit-anti-mouse IgG antibody (Dako, P0260).”

[8] = molecular target: T1, human serum amyloid P component (SAP), …; assay: Biacore, human SAP amine-coupled on CM3 chip, bivalent analyte model
Protocol: Human SAP was immobilised on a Biacore CM3 chip by primary amine coupling in accordance with the manufacturer's instructions. […] All runs were double referenced with a buffer injection over the human SAP surface. Analysis was carried out at 25° C. using HBS-EP buffer.

[9] = molecular target: T1, human serum amyloid P component (SAP), …; assay: Biacore kinetics, human SAP captured on immobilised O-phosphoethanolamine; alanine at position 91 of L0, not wild-type H3L0
Protocol: as §2

[10] = molecular target: T1, human serum amyloid P component (SAP), …; assay: binding ELISA and Biacore off-rate ranking
[11] = molecular target: T1, human serum amyloid P component (SAP), …; assay: competition ELISA, human SAP coated at 5 µg/mL, constant SAP-E chimera (cSAP-E) as competitor, bound chimera detected with goat anti-human kappa light chain peroxidase conjugate
From the text: A constant concentration of chimeric anti-SAP mAb was mixed with serial diluted (1:1) amounts of mouse anti-SAP mAbs. Plates were washed and the amount of chimeric antibody bound to the immobilised human SAP was detected using goat anti-human Kappa Light chain peroxidase conjugate (Sigma, A7164). The ELISA was developed using O-phenylenediamine dihydrochloride (OPD) peroxidase substrate (Sigma, P9187).

[12] = molecular target: T2, human SAP N-terminal 1-158-homoserine lactone polypeptide (CNBr cleavage fragment) (Homo sapiens, position 159 converted from methionine to homoserine lactone); assay: western blot from SDS-PAGE
T2 construct: Tested in western blot from SDS-PAGE; also called approximately 20 kD fragment
T2 chain: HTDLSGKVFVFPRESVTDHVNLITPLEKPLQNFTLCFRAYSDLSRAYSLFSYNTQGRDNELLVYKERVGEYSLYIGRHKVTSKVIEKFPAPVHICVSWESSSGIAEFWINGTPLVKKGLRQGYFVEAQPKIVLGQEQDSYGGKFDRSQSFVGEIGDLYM

[13] = molecular target: T3, human SAP 1-140 fragment (chymotrypsin digestion in the absence of calcium) (Homo sapiens); assay: western blot from SDS-PAGE
T3 construct: Tested in western blot from SDS-PAGE; also called residue 1-140 fragment
T3 chain: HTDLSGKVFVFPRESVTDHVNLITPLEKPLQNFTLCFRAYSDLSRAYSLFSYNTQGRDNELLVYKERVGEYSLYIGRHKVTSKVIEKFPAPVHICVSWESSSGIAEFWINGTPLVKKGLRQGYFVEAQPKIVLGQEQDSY

[14] = molecular target: T4, isolated pure human C-reactive protein (CRP) (human, UniProt P02741 19-224); assay: western blot from SDS-PAGE
T4 construct: also called human CRP
T4 sequence (looked up): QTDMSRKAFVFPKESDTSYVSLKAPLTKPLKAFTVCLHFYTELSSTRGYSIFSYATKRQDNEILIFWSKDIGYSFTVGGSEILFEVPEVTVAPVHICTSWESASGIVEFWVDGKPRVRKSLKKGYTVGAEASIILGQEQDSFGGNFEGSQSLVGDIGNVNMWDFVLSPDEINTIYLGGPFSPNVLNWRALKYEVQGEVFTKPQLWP

[15] = molecular target: T1, human serum amyloid P component (SAP), …; assay: Biacore (BIAcoreX), human SAP covalently immobilised on the chip; mean and SD of 3 replicates; human SAP covalently immobilised on the chip; mean of 3 replicates
[16] = molecular target: T1, human serum amyloid P component (SAP), …; assay: Biacore, human SAP captured on immobilised O-phosphoethanolamine (CM5 chip, calcium), bivalent analyte model; kd outside the Biacore measurement range
Protocol: as §2

B2: SAP-K H1L0 humanised antibody (antibody, V domains shown)
VH: QVQLVQSGAEVKKPGSSVKVSCKASGYTFTSYWMHWVRQAPGQGLEWMGMIHPNSVNTNYNEKFKSRVTITADKSTSTAYMELSSLRSEDTAVYYCARRNDYYWYFDVWGQGTLVTVSS
VL: DIQMTQSPSSLSASVGDRVTITCKASQNVNSNVAWYQQKPGKAPKLLIYSASYRYSGVPSRFSGSGSGTDFTLTISSLQPEDFATYYCQQCNNYPFTFGQGTKLEIK
EC50 (read off the curve) [5]: ~0.1 µg/mL | koff [6]: 0.0171 s⁻¹ | fold loss of human SAP binding activity compared to the SAP-K chimera [7]: ~2 fold | Kd [8]: 155 nM | koff [8]: 0.0178 s⁻¹ | kon [8]: 115000 M⁻¹ s⁻¹

B3: SAP-K H0L0 humanised antibody (antibody, V domains shown)
VH: B2 VH with Y27G, T30S
VL: B2 VL
koff [6]: 0.0263 s⁻¹ | fold loss of human SAP binding activity compared to the SAP-K chimera [7]: ~2 fold | Kd [8]: 739 nM | koff [8]: 0.0449 s⁻¹ | kon [8]: 60800 M⁻¹ s⁻¹

B5: SAP-K H3 with L0 91A humanised light chain variant (antibody, human IgG1, V domains shown)
VH: B2 VH with M48I, V68A, I70L, A72V
VL: B2 VL with C91A
notes: Human IgG1/kappa; also called variant with alanine at position 91
Kd [9]: 0.436 nM

B6: SAP-K H1L1 humanised antibody (antibody, V domains shown)
VH: B2 VH
VL: B2 VL with L46A
koff [6]: 0.0296 s⁻¹

B7: SAP-K H2L0 humanised antibody (antibody, V domains shown)
VH: B2 VH with M48I, V68A
VL: B2 VL
koff [6]: 0.0204 s⁻¹ | fold loss of human SAP binding activity compared to the SAP-K chimera [7]: ~2 fold | Kd [8]: 191 nM | koff [8]: 0.022 s⁻¹ | kon [8]: 115000 M⁻¹ s⁻¹

B9: SAP-K H2L1 humanised antibody (antibody, V domains shown)
VH: B2 VH with M48I, V68A
VL: B2 VL with L46A
koff [6]: 0.0321 s⁻¹

B10: SAP-E mouse monoclonal anti-human SAP antibody (antibody, mouse IgG2a, V domains shown)
VH: QASLQQSGTELVRSGASVKMSCKASGFTFATYNMHWIKQTPGQGLEWIGYIYPGDGNANYNQQFKGKATLTADTSSNTAYMQISSLTSEDSAVYFCARGDFDYDGGYYFDSWGQGTTLTVSS
VL: DIQMTQSPASLSASVGETVTITCRASENIYSYLAWYQQKQGRSPQLLVHNAKTLAEGVPSRVSGSGSGTHFSLKINGLQPEDFGNYYCQHHYGAPLTFGAGTKLELK
notes: also called Mouse SAP-E; murine SAP-E
IC50 (read off the curve) [11]: ~2 µg/mL | Kd [2]: 5 nM | koff [2]: 6e-05 s⁻¹ | binding result [12]: binds | binding result [13]: binds | binding result [14]: no binding (tested: 500 ng and 100 ng loaded) | kon [3]: 31500 M⁻¹ s⁻¹ | kon [15]: 20000 M⁻¹ s⁻¹ | EC50 (read off the curve) [4]: ~0.04 µg/mL | koff [16]: < 1e-05 s⁻¹

Other lines, results leading:

EC50 (read off the curve) [1]: ~0.04 µg/mL | Kd [2]: 1 nM | koff [2]: 1.7e-05 s⁻¹ | kon [2]: 31800 M⁻¹ s⁻¹ | Kd [3]: 0.73 nM | koff [3]: 0.000219 s⁻¹ | kon [3]: 300000 M⁻¹ s⁻¹ | EC50 (read off the curve) [4]: ~0.02 µg/mL
B1: SAP-K mouse monoclonal anti-human SAP antibody (antibody, mouse IgG2a, V domains shown)
VH: QVQLQQPGAELIKPGASVKLSCKASGYTFTSYWMHWVKQRPGQGLEWIGMIHPNSVNTNYNEKFKSKATLTVDKSSSTAYMQLNSLTSEDSAVYYCARRNDYYWYFDVWGTGTTVTVSS
VL: DIVMTQSQKFMSTSVGDRVSVTCKASQNVNSNVAWYQQKPGQSPKALIYSASYRYSGVPDRFTGSGSGTDFTLTITNVQSEDLAEYFCQQCNNYPFTFGSGTKLEIK
notes: also called Mouse SAP-K; murine SAP-K

koff [6]: 0.0236 s⁻¹
B4: SAP-K H3L1 humanised antibody (antibody, V domains shown)
VH: B2 VH with M48I, V68A, I70L, A72V
VL: B2 VL with L46A

binding result [10]: binds
B8: SAP-K H1 with L0 91A humanised light chain variant (antibody, human IgG1, V domains shown)
VH: B2 VH
VL: B2 VL with C91A
notes: Human IgG1/kappa; also called alanine variant paired with H1

From patent US20120225055A1 (GlaxoSmithKline, published 2012)
